The first experiment concerns the target T1, recombinant human IL-33 (human).
T1 sequence (O95760 whole entry, looked up): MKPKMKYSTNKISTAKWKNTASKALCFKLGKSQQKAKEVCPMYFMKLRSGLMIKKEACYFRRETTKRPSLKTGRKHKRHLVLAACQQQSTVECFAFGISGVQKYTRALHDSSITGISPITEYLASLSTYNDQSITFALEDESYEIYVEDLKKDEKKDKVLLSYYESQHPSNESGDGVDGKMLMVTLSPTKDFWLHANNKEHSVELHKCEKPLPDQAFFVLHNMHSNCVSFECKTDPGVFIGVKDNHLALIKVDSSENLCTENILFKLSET
Turning to “human IL-33trap with 7xGGS linker (sIL-1RAcP-7xGGS-sST2) (from UniProt Q01638 19-328) (receptor)”, the IC50 of inhibition of IL-33-induced NF-κB luciferase reporter activity in HEK293T cells transfected with human ST2; IL-33 pre-incubated 30 min with the trap (blocks IL-33 acting on ST2 of the cells) stood at 0.194 nM.
On to “human IL-33trap with 7xGGS linker and human IgG1 Fc (from UniProt Q9NPH3 21-367; Q01638 19-328) (Fc fusion)”, for which the IC50 of inhibition of IL-33-induced NF-κB luciferase reporter activity in HEK293T cells transfected with human ST2; IL-33 pre-incubated 30 min with the trap (blocks IL-33 acting on ST2 of the cells) was determined as 0.067 nM.
Same read-out and setting: next, “human IL-33trap with 12xGGS linker (sIL-1RAcP-12xGGS-sST2) (from UniProt Q01638 19-328) (receptor)”: 0.042 nM; “human IL-33trap with 12xGGS linker and human IgG1 Fc (from UniProt Q9NPH3 21-367; Q01638 19-328) (Fc fusion)”: 0.057 nM; “human IL-33trap without Fc and GGS linker (sIL-1RAcP-sST2) (from UniProt Q01638 19-328) (receptor)”: 0.748 nM.
Still for that read-out and setting: next, “human IL-33trap without GGS linker fused to human IgG1 Fc (sIL-1RAcP-sST2-Fc) (from UniProt Q01638 19-328) (Fc fusion)”: 0.09 nM.

A further experiment deals with recombinant human IL-13 (human) (UniProt P35225).
Chain of UniProt P35225 (P35225 25-146): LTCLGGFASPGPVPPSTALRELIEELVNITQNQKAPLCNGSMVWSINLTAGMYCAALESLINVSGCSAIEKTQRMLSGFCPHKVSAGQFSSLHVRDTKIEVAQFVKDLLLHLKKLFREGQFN
For “human IL-4/13trap (from UniProt P78552 22-343; P24394 26-232) (receptor)”, the IC50 of inhibition of IL-13-induced STAT6-dependent luciferase activity in HEK293T cells transfected with human IL-4Rα and IL-13Rα1; cytokine pre-incubated with the trap stood at 0.434 nM.

These data come from publication PMC7370943.
